Assay results published in patent US20240293553A1 (BETH ISRAEL DEACONESS MEDICAL CENTER, published 2024).
One block for each binder: values may come before it. Square brackets hold non-standard residues; d marks the D form. Side chains are listed from the residue outwards. Ends that are not written are not given here. mPEG 40 kDa (SVA) = 40 kDa methoxy poly(ethylene glycol) succinimidyl valerate (mPEG-SVA); triazole linker = not defined here; Fs = not defined here

Tests used:
[1] = biological target: T1, murine P-selectin-Fc chimera (murine, UniProt Q01102 42-709); test: flow cytometry competition: inhibition of murine P-selectin-Fc chimera (3 µg/mL) binding to murine neutrophils
T1 construct: Bought from R&D Systems; also called mouse P-selectin chimera; species-specific P-selectin-Fc chimera; not shown: Fc part
T1 sequence (looked up): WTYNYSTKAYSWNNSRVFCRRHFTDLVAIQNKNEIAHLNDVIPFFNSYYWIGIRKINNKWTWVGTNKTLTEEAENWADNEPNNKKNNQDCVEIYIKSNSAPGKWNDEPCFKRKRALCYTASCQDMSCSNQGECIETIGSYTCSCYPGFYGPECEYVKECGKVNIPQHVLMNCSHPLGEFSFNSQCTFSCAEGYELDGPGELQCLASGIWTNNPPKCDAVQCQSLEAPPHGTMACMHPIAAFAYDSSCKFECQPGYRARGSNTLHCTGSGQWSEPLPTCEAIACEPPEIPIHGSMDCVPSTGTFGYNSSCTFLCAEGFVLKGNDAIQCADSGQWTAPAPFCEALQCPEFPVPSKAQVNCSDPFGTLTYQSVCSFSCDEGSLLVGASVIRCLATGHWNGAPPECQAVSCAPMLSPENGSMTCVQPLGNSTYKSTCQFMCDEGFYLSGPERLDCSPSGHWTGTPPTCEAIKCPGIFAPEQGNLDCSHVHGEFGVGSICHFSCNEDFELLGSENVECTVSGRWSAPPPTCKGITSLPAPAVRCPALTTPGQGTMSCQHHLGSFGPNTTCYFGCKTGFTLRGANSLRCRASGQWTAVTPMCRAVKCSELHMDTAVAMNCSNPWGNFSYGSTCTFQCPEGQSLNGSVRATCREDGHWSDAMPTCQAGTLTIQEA

[2] = biological target: T2, human P-selectin-Ig chimera (human, UniProt P16109 42-771); test: flow cytometry competition: inhibition of human P-selectin-Fc chimera (3 µg/mL) binding to human monocytes
T2 construct: No source is stated for the chimera used on the microarray and in SPR; also called P-Sel-Ig; P-sel-Ig
T2 sequence (P16109 42-771, change not shown): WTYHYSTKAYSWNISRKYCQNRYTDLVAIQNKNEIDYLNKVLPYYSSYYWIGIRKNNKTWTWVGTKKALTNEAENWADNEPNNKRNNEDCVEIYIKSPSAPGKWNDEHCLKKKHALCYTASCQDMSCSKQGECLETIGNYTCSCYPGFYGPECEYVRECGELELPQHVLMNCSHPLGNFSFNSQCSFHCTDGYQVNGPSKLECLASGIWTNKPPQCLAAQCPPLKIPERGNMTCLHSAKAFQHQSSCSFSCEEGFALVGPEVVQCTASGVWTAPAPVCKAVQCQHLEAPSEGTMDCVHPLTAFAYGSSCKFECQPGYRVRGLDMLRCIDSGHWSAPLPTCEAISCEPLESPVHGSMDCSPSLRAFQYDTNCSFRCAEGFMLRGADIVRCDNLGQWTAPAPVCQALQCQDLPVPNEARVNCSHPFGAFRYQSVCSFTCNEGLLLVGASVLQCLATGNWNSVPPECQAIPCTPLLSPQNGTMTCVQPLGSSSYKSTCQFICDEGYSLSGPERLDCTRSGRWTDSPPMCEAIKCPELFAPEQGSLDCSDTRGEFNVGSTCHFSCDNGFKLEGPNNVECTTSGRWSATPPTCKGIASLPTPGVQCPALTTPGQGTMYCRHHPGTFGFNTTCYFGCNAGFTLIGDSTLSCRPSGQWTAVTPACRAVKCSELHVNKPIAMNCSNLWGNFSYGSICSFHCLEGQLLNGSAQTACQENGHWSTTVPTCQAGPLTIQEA

[3] = biological target: T2, human P-selectin-Ig chimera; test: flow cytometry competition: inhibition of human P-selectin-Fc chimera (3 µg/mL) binding to human neutrophils
[4] = biological target: T1, murine P-selectin-Fc chimera; test: flow cytometry competition: inhibition of murine P-selectin-Fc chimera (3 µg/mL) binding to murine monocytes
[5] = biological target: T2, human P-selectin-Ig chimera; test: SPR (Biacore): biotinylated G4 on streptavidin chip, P-sel-Ig flowed at 0.4-100 nM, 1:1 model
[6] = biological target: T2, human P-selectin-Ig chimera; test: SPR (Biacore): biotinylated ligand on streptavidin chip, P-selectin-Ig flowed at 0.4-100 nM

- IC50 [1]: 9 µM
- IC50 [2]: 12 µM
- IC50 [3]: 9 µM
- IC50 [4]: 6 µM
B1: PEG40-G4 (P-G4) (peptide)
peptide: {mPEG 40 kDa (SVA)}-KE[Fs]E[Fs]LD[Fs]DFLPET([triazole linker-sLe^x])EPL
modifications: reading uncertain
notes: also called PEG-G4; pegylated click compound

- IC50 [2]: 16 µM
- IC50 [3]: 13 µM
- Kd [5]: 0.069 µM
- Kd [6]: 0.05 µM
- IC50 [4]: 10 µM
B2: G4 (peptide)
peptide: KEFEFLDFDFLPETEPL
modifications: not fully specified (residues 3, 5, 8, 14); also: biotinylated for SPR, place not given here
notes: Synthetic glycosulfonopeptide analogue of the N-terminus of PSGL-1; also called compound 1
